Assay: label from the status in PepcDB records
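Further: failed if final PepcDB status was selected cloned or expressed and not failed if soluble or beyond.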

Sequence: MITVVKRNGRIEPLDITKIQKYTKDATDNLEGVSQSELEVDARLQFRDKITTEEIQQTLIKTAVDKIDIDTPNWSFVASRLFLYDLYHKVSGFTGYRHLKEYFENAEEKGRILKGFKEKFDLEFLNSQIKPERDFQFNYLGIKTLYDRYLLKDANNNPIELPQHMFMSIAMFLAQNEQEPNKIALEFYEVLSKFEAMCATPTLANARTTKHQLSSCYIGSTPDNIEGIFDSYKEMALLSKYGGGIGWDFSLVRSIGSYIDGHKNASAGTIPFLKIANDVAIAVDQLGTRKGAIAVYLEIWHIDVMEFIDLRKNSGDERRRAHDLFPALWVCDLFLKRVLEDAMWTLFDPYECKDLTELYGQDFEKRYLEYEKDPKIIKEYINAKDLWKKILMNYFEAGLPFLAFKDNANRCNPNAHAGIIRSSNLCTEIFQNTAPNHYYMQIEYTDGTIEFFEEKELVTTDSNITKCANKLTSTDILKGKPIYIATKVAKDGQTAVCNLASINLSKINTEEDIKRVVPIMVRLLDNVIDLNFYPNRKVKATNLQNRAIGLGVMGEAQMLAEHQIAWGSKEHLEKIDALMEQISYHAIDTSANLAKEKGVYKDFENSEWSKGIFPIDKANNEALKLTEKGLFNHACDWQGLREKVKANGMRNGYLMAIAPTSSISILVGTTQTIEPIYKKKWFEENLSGLIPVVVPNLNVETWNFYTSAYDIDAKDLIKAAAVRQKWIDQGQSLNVFLRIENASGKTLHDIYTLAWKLGLKSTYYLRSESPSIDEKSVLDRSVECFNCQ
- protein production: failed

Sequence: MIVASSAAYRLHQGDALRLLCGIDSASVDAVITDPPYCSGAMRMADRFKPTKRKYINNGTKHVAPDFDCDFRDHRGFLAWSSQWLSECRRVTRPGGVLLVFTDWRMLPTLTDAVQSAGWAWQGIVVWDKTPACRPQLGRFRSQAEFIVWASCGLMNPKAHPVTPVGVFATGTAPREKRHQVGKPLALMEHLVKIVPPASTVLDPFAGSGTTGVAALRAGHRFIGMELSPWYCDVTKQRLADST
- protein production: failed

Sequence: MIVEKVLIVDPIDGEFTGDVEIEEGKIVKVEKRECIPRGVLMPGFVDPHIHGVVGADTMNCDFSEMEEFLYSQGVTTFLATTVSTSLEKMKEILRKARDYILENPSTSLLGVHLEGPYISKEKKGAHSEKHIRPPSERELSEIDSPAKMLTFAPEIESSELLLRLVKRDIVLSAGHSIATFEEFMKFYKEGVKRITHFPNGLKPLHHREIGITGAGLLLDDVKLELICDGVHLSREMVKLVYKVKKANGIVLVTDSISAAGLKDGTTTLGDLVVKVKDGVPRLEDGTLAGSTLFFSQAVKNFRKFTGCSITELAKVSSYNSCVELGLDDRGRIAEGTRADLVLLDEDLNVVMTIKEGEVVFRSR
- protein production: not failed

Sequence: MIVNEPVPDTFEDTPAKDRDPDWFKRAVFYEVLVRSFQDSNGDGIGDLKGLTAKLDYLQWLGVDCLWLPPFFKSPLRDGGYDVSDYTAVLPEFGDLADFVEFVDAAHQRGMRVIIDFVMNHTSDQHPWFQESRRNPDGPYGDYYVWADDDKQFQDARIIFVDTEASNWTYDPVRKQYYWHRFFSHQPDLNYENPVVQEEMISALKFWLDLGIDGFRLDAVPYLYQEEGTNCENLPRTHDFLKRVRKEIDAQYPDTVVLAEANQWPEDVVDYFGDYAAGGDECHMAFHFPVMPRIFMAVRRESRYPVSEILAKTPAIPSGCQWGIFLRNHDELTLEMVTDEERDYMYAEYAKDPRMRANIGIRRRLAPLLDNDRNQIELFTALLLSLPGSPILYYGDEIGMGDNIWLGDRDAVRTPMQWTPDRNAGFSSSDPGRLFLPTIMDPVHGYQVTNVEASMASPSSLLHWTRRMIEIRKQNVAFGLGTYTELPSSNPAVLAFLREHEDDLVLCVHNFSRFAQPTELDLSAFDGRHPVELFGGVRFPAVGDLPYLLTLGGHGFYWFRLRKDAA
- protein production: failed

Sequence: MIVRSKPNLISVLISLKGSIAKRIALRSLLVTLLASAIVLIETLHPAYFSKVNATPFTLLGLSLSIFMSFRNNACYDRWYEARKALGTVVTEVRSMIRETQVLEDTRARSAILRDLCGFAHALKARLRREDELSAAETWLSQLPPASTSNLPDSLLRQIARQCSDQAQAGRLSEWRYLLLANQLAAITGAQSTCERIKATPLPFPYTLLLHRTSYMFCILLPFAMAEPLGWLTPIFTAIVSYTFFGLDAIGDELEDPFGHDENDLPLSAIVRNIEREILEALGATELPPALEPVDYVLS
- protein production: failed

Sequence: MIVTLLGTGDSPGTPILNCHCRTCEDARRKGWERKRFSVMVQNNGKTVLIDTSPDLRRQLLDCGVEKVDAVIWTHCHFDHFGGFGEFYRVQNNVKVYSTPQIHEDIGHFMKFMSYKPVEVEAFENFTIAGMDFTLLPVNHPPVSAVGVKVEWKGYKVVVSGDTNVRIPEATLREMQNPDLLIVEALAPTGRFRKHMNAKEALELAKRLNAGKVVLTHLGHFFPPHHLAIKSYPVGEDYQSFSFGEGRLDEFFGDLEHHHHHH
- protein production: failed

Sequence: MIWLQLVVVLAAIFVGARLGGIGLGVMGGLGLGVLTFVFHLQPTSPPIDVLLMIAAVVTAAGVLQAAGGLDYLVSVAERILRSNPDRITFLGPLVTYVFTLFAGTGHVAYSVLPVISEVARETGVRPERPMSISVIASQQAITASPISAATVALLGMLSTGAAGAAFHIELIDILKVCIPSTLLGVLAAAFVANRMGKDLEEDPEYQDRVARGLAAPTGRQALAAADGGEPVRAAAPVTAKIAVGIFLAAALAVVLFGSFPGMRPQWTTASGVTKLGMPHAIEMVMLSAAALMLMVCRVDVSKVATGSVFGAGVQAVIAIFGIAWMGDTFFAGNMEVLGGSIKGMVTAAPWLFAAALFALSVLLYSQAATVRALMPLGIALGIPAPALMAMFPAVNGYFFIPNYPTIVAAINFDRTGTTRIGRWVLNHSFMVPGLISTVVAIATGLVIVRFMF
- protein production: failed

Sequence: MIWSLLKIYVLMLCTISTVYNTFLLIVCVVGCCVQMEEIVFETKDAVDWSYRSEGVVNLVLAYSGSSPTFLGKVMRIKKLRNTRNENRDRSGSCLTTQEKLIWGEIKDLVSCQNKEIVDYLFVKHVMKPLLGHKYVTPGICLPVEKEFLESVKKIVTSQRHSWRANTLSVDTNRSFALLMDDLTIFSHGQVEDHKPCLTVEIKPKCGFLSSSSFIAEENVIKKSISRFEMYQVLKLRENQISQISEYDPLDLFSGSKDRIHKAIKALYSTPQNSLQVFLNGSLVFGGFRGGICKTTSKLELAFEHTLKDFFKTEDDCGLRANAFIELVAETVYASGALDQLLEVQKLDKYNIEGAIHAYYDLVDQPCKACQELESSKLSNQFGSMHSLPQDEKVNILKDFLISSTAIDCSVMISFRPIETGLSRSSSHGNIQLESTKQEFEYKIHFIDLDMRPLKRMEAYHESDKKITKTYQEMLKKKKGDQPRRF
- protein production: failed

Sequence: MIYDFCVIGGGIVGLATAMRLLEVYPGCSLVLMEKELSLAQHQTGHNSGVIHAGVYYAPGSFKAKLCARGAELTKSFCTEHSIPYEVCGKLVVASNKDSLARLGSLEERAKQNGLATERLDALELRRREPNVAGEGALFVKSSGIVDYGVVSNSMANVIIQSGGQILLGQTVVSIEEHGNHVNIASEGSSLSAKKLVVCAGLQSDRLATLAGLKLDCQIVPFRGEYYRLSSHLDYSVKHLIYPVPEVGLPFLGIHITRMINGGVTVGPN
- protein production: failed

Sequence: MIYDLHSHSTASDGMLTPTELILRAVEQKVDVLALTDHDTLAGIQEAKIAAESQPIQLISGVEISALWQNKNIHLTALDIDEHHPALIELLQHHAVLREQRAVEIGEKLAKAGIPNAYHGAKMLANGEVTRAHYARFLVQQDYVRNIEHAFKKYLGTGKIAYVKPQWSSISHVIDVTHQAGGVICLAHPLRYKMTARWLRALIEHFKQAGGDGIEVASCGQRPDQRQLIARWASEFDLYASVGSDFHYPTGWIELGKSLTLPTTCKPIWQLFTTQ
- protein production: failed

Sequence: MIYRFTIISDEVDDFVREIQIDPEATFFDLHEAILKAANYTNDQMTSFFICDDDWEKEKEITLEEMDNNPEMDSWIMKETRLNELIEDEKQKLLYVFDYMTERCFFIELSEIITGKEIKGAKCTKKSGEAPKQTVDFEEMAAGGGSLDLDENFYGDQDFDMEDFDAEGFDVNDGAAGGGSSYDEDKFLEHHHHHH
- protein production: not failed

Sequence: MIYRKATEKDIAQLVELRKKQLEDEGIAPINNIDTELTHFFELSFKKNSFISWISEEDNEIIATSGVCFYKYPPSYLNPSGKVAYITNMYTKYEYRSRGIALALLKLVILEAKKRDYLFLRLHASDMGRPIYEEIGFKPFDDFMEMNLSLNRNGELEHHHHHH
- protein production: not failed
